Drawing on the supplement of paper PMC12042874, this text covers amyloid nucleation score for 132 substances.

± gives the uncertainty stated by the source.

The nature of this data set: amyloid nucleation score (Sup35N fusion, yeast selection) (log enrichment); library NNK3; higher = more nucleation; inactive = no reads after selection. Summed up: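 In psi-negative yeast, Sup35N fusions carrying peptides of 20 random codons were induced with 100 μM copper sulfate for 24 hours. The cells then grew 7 days at 30°C on medium lacking adenine and uracil, and plasmid inserts from input and output were Illumina-sequenced, excluding sequences with under 100 input reads. Nucleation score is the DiMSum log enrichment of output over input reads, centred on the mode score of non-aggregating sequences.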
With NYYRC, the amyloid nucleation score result is “inactive”.

Regarding AVPNIL, the amyloid nucleation score entry is “inactive”.

In turn, EPNVFSSLGILNINVVALWL gave an amyloid nucleation score of 0.98 ± 0.2.

Consider SDCYCNSQAVAWLFDRVFVF, for which the amyloid nucleation score entry was “inactive”.

With SFFKNGGELVMSCVSVSPDI, the amyloid nucleation score result was “inactive”.

Take KGFNSALLMWVLYINKQ: the amyloid nucleation score result is “inactive”.

For the substance ISGHGMKAVMSVDHSLY, the amyloid nucleation score result was “inactive”.

Take GWLRAMKSIVNLF: the amyloid nucleation score entry is “inactive”.

As to CLGPKCATKDIFL, the amyloid nucleation score result is “inactive”.

For YEIHWSRRKGMWFEYYTFHF, the amyloid nucleation score entry was “inactive”.

As for WNDRKSYLYSAIAMKARSVY, the amyloid nucleation score result was “inactive”.

Take TWGCYLLISNI: the amyloid nucleation score entry was “inactive”.

Regarding DIRYLNNFDSCQYGRGFLAA, the amyloid nucleation score result was “inactive”.

Turning to TDTIKSVVYVSVLDGDYNSG, the amyloid nucleation score result was “inactive”.

As for TADDNVIRLAYFNVTTPLWF, the amyloid nucleation score result is “inactive”.

For the substance LYSVSAAMDTIKPLFPRGNA, the amyloid nucleation score result is “inactive”.

For NISWVAFMIVLHLDRLNMF, the amyloid nucleation score entry was “inactive”.

For the substance SMNFLLLISMCNLWPSYAAL, the amyloid nucleation score was 1.36 ± 0.14.

IGEPCLWNSV: the amyloid nucleation score result is “inactive”.

With VSSMGSV, the amyloid nucleation score entry was “inactive”.

For LLLCYYNGIWRFDGRLS, the amyloid nucleation score entry was “inactive”.

Turning to IFVVP, the amyloid nucleation score result was “inactive”.

As to WRRGFVNSRGYNLRFWGHYF, the amyloid nucleation score result was “inactive”.

In turn, ARSIFARLQYSHLSSRGEVI returned an amyloid nucleation score of 0.018 ± 1.

Turning to CAFLFL, the amyloid nucleation score entry was “inactive”.

On to SEASYIIIFSGFSGFMPKLG, for which the amyloid nucleation score result is “inactive”.

For TIHYG, the amyloid nucleation score result was “inactive”.

For the substance FYLALIYNICFADRKLVGVC, the amyloid nucleation score entry was “inactive”.

TGFNASCCLLGSRCGAEKIL showed an amyloid nucleation score of 0.604 ± 0.18.

Take VKVVNTSCPMDGLPNCLTRR: the amyloid nucleation score entry is “inactive”.

IGAWHVLITGCTFQEIPR: the amyloid nucleation score was 1.88 ± 0.064.

As to CGDLVGTSKYSTLLEWRS, the amyloid nucleation score entry is “inactive”.

Take WRIDDY: the amyloid nucleation score result was “inactive”.

Take SYGLKISLSHTFRSGRGMCG: the amyloid nucleation score result was “inactive”.

As for FIGSGSHEIGGHINGKALSS, the amyloid nucleation score was determined as 0.644 ± 0.19.

Regarding IENNSPLSSFLGYGKCIP, the amyloid nucleation score result is “inactive”.

With VRILLRFLVVFRLYLVFC, the amyloid nucleation score entry is “inactive”.

Regarding ALSLYLISLWYGYSWYLRFD, the amyloid nucleation score entry is “inactive”.

As for PGNEEVGTNCMLTSNLTYVH, the amyloid nucleation score result was “inactive”.

In the case of NSPTYYPHSFLMTYKALSFT, the amyloid nucleation score result is “inactive”.

On to YVEMYN, for which the amyloid nucleation score entry was “inactive”.

Take LIVSIYMCGCRKRITFLRVS: the amyloid nucleation score entry is “inactive”.

Consider AFLSLCKLDYSYANCLVIVV, for which the amyloid nucleation score result is “inactive”.

For the substance PSQHMRSARRQVGKSTSNEG, the amyloid nucleation score result was “inactive”.

As for RLGNTGMCV, the amyloid nucleation score result was “inactive”.

Take NDTFVY: the amyloid nucleation score entry is “inactive”.

For the substance MKRCTVFEPLPKRRLVMYLE, the amyloid nucleation score result was “inactive”.

For the substance MIIYVKLPYRCLFFERHSDT, the amyloid nucleation score result was “inactive”.

NGYFLSQGGLLSLIMHFKIV displayed an amyloid nucleation score of -0.041 ± 0.77.

WECRDETSCARVVFTGLFR: the amyloid nucleation score entry is “inactive”.

YPMRCTCMDGGNSWDLM showed an amyloid nucleation score of 0.177 ± 0.27.

In the case of LNIMVE, the amyloid nucleation score result was “inactive”.

Regarding CFQQVHN, the amyloid nucleation score result is “inactive”.

Consider AGSDHVLRDRHYVVMPQEFL, for which the amyloid nucleation score entry was “inactive”.

For the substance RVVPL, the amyloid nucleation score entry is “inactive”.

As to CCGVLQRMKISQKVN, the amyloid nucleation score result is “inactive”.

Regarding YQIFYSEVSFLMAG, the amyloid nucleation score result is “inactive”.

PMHLTKVHVVRNFVTQSTRG: the amyloid nucleation score result was “inactive”.

Turning to WIGSRGHQCPYRSSVTMMGT, the amyloid nucleation score entry was “inactive”.

Turning to AMKSAW, the amyloid nucleation score result is “inactive”.

For the substance HGDDCGDRDCGGRKECTGIA, the amyloid nucleation score result is “inactive”.

EVGVTSLTIGHVT: the amyloid nucleation score amounted to 1.29 ± 0.096.

Consider FHGKNVF, for which the amyloid nucleation score entry was “inactive”.

On to DFRLLWVQTMSFCLNYQAKL, for which the amyloid nucleation score entry is “inactive”.

As for KQSMRQSYSVPPEEVDKQGR, the amyloid nucleation score entry is “inactive”.

Turning to SMSTN, the amyloid nucleation score entry was “inactive”.

With GRLCYNSTNYLRHAASCLSM, the amyloid nucleation score result is “inactive”.

For RCSHDYGLWVVDWVVSKWGC, the amyloid nucleation score entry was “inactive”.

Turning to QFFSISIFTWVYLVENVADI, the amyloid nucleation score result was “inactive”.

SWWVTGIALEHGSGLTVQVH: the amyloid nucleation score entry is “inactive”.

With GAGRNFGTVCL, the amyloid nucleation score result is “inactive”.

As for ACFWLIDVTKWLTCYRRSSN, the amyloid nucleation score result is “inactive”.

For the substance GIFLSEWWLGSVSCVRTNVP, the amyloid nucleation score entry was “inactive”.

VGNFTWICKI displayed an amyloid nucleation score of 2.48 ± 0.056.

In turn, IAHPSHGS showed an amyloid nucleation score of 0.432 ± 0.22.

Consider AITVGLSGARRD, for which the amyloid nucleation score result was “inactive”.

NFGQNCN registered an amyloid nucleation score of -0.48 ± 0.57.

In the case of GRGVDWMKQWNVHRKVLSSL, the amyloid nucleation score result was “inactive”.

On to YGWVVSSLCYGKFYICIWNL, for which the amyloid nucleation score came to 0.797 ± 0.22.

The substance ASSLHDPMRYVQTFRISWCC displayed an amyloid nucleation score of 1.34 ± 0.12.

HIRSSDHGGSLTGLTCRDTD: the amyloid nucleation score result is “inactive”.

With HVCWVWMCEVFKAAIPSVTD, the amyloid nucleation score result was “inactive”.

As to LYSSNQLFDGGMSFWNDNII, the amyloid nucleation score entry is “inactive”.

As to QKVLLWTSGPSSSRHRTEEF, the amyloid nucleation score entry was “inactive”.

Turning to IYAQELLSVANLLRFL, the amyloid nucleation score entry was “inactive”.

With ITLLYALVLFFTWNVSG, the amyloid nucleation score entry was “inactive”.

CRCDFFDSKAAPIGGGNNVL: the amyloid nucleation score result was “inactive”.

As to SLKFIELDMSIVVMSSDYFR, the amyloid nucleation score entry is “inactive”.

With WCCFSWKVLRHGLTSACGC, the amyloid nucleation score is 1.31 ± 0.11.

Turning to FVNQFLQKFMNLDKYIKLSH, the amyloid nucleation score entry was “inactive”.

As to QVLTFVYFHDNVMVLGWEYS, the amyloid nucleation score was found to be 0.206 ± 0.78.

With NGRNSRQTVIRIVSRWVVNH, the amyloid nucleation score result was “inactive”.

For the substance RILVGLNCS, the amyloid nucleation score result is “inactive”.

Turning to LNLNFKVRGL, the amyloid nucleation score was determined as 0.654 ± 0.27.

Regarding CNWMIPASSP, the amyloid nucleation score result was “inactive”.

Take SFKMSVVAGVRTLGIFVWVF: the amyloid nucleation score entry was “inactive”.

Take SLLGSEGVSLIFLHYYWWSA: the amyloid nucleation score result is “inactive”.

In the case of IYVRLMSFH, the amyloid nucleation score stood at 0.452 ± 0.15.

Consider NVNGSFKI, for which the amyloid nucleation score result is “inactive”.

With SVGFRYHVLRKSKWCVYIVE, the amyloid nucleation score result was “inactive”.

As for PVLGPAEGITIGRGV, the amyloid nucleation score result was “inactive”.

On to YRIWEQTLMFYVNLSRAKCF, for which the amyloid nucleation score result was “inactive”.

Turning to VLMMPPAFRRQSFNFRCVSQ, the amyloid nucleation score result was “inactive”.

As for YRPVQSVQIVHLLSILILVW, the amyloid nucleation score entry was “inactive”.

Take TVDNHGSA: the amyloid nucleation score entry is “inactive”.

TTCILYPYLWCLMIHMSASN: the amyloid nucleation score is 0.891 ± 0.16.

In the case of EVSIKAVDWRVSDVTVARTC, the amyloid nucleation score was -0.228 ± 0.93.

For the substance SYLCSGWDRSWAGISCEHSE, the amyloid nucleation score result was “inactive”.

For EGRCMRKCARVNGSWAMKWM, the amyloid nucleation score result was “inactive”.

Take YGYEHALQFIFYLFNHLSWS: the amyloid nucleation score entry was “inactive”.

In the case of TSCLNKKHAVGFSCVFYH, the amyloid nucleation score result was “inactive”.

Regarding SKFRFGRVNLNVT, the amyloid nucleation score result is “inactive”.

With HELDSTTLCVFKPFPFHANL, the amyloid nucleation score entry is “inactive”.

For FSMLWILSDYLSYSCNLVFY, the amyloid nucleation score result was “inactive”.

Regarding PDYEHKVSLLEGKRAYLEHF, the amyloid nucleation score result is “inactive”.

In the case of LMGGQMRDIVFHMQGF, the amyloid nucleation score was determined as 1.45 ± 0.1.

As to FVMSFAN, the amyloid nucleation score entry was “inactive”.

IKCVCFLCPNQ registered an amyloid nucleation score of 1.02 ± 0.19.

RCVIALMLYVILGMNGWKAS: the amyloid nucleation score result is “inactive”.

RMFFYWDEFYSLIVGVMSGL: the amyloid nucleation score entry is “inactive”.

MIMTMTAGFFLELLW: the amyloid nucleation score entry is “inactive”.

As to NLRHYTVDMLCSNYEYVIVY, the amyloid nucleation score result is “inactive”.

WVEWIWSWKNDVPLVCRASA: the amyloid nucleation score result was “inactive”.

Turning to VCGLLL, the amyloid nucleation score entry is “inactive”.

For the substance YVGFRAQHTNEDDGTTVCRP, the amyloid nucleation score entry was “inactive”.

Regarding TIEYLAGYFILMSQILGGDV, the amyloid nucleation score result was “inactive”.

QMYKYNPNLYFFSVAVNLVV registered an amyloid nucleation score of 2.18 ± 0.073.

With VSFLMIYLSSNCSVSVRYHY, the amyloid nucleation score entry is “inactive”.

With VPCMRNFDLYLKSVTDRLDK, the amyloid nucleation score entry was “inactive”.

Consider VRWSWSMFVVYNSVES, for which the amyloid nucleation score result is “inactive”.

The substance SEDLRETWGSSA gave an amyloid nucleation score of -0.377 ± 0.98.

VYFMCVQHWLVSGHPDPLNE showed an amyloid nucleation score of -0.246 ± 0.69.
